# From the nanobody polyreactivity screen of Harvey et al. (2022)
# Test: yeast display, Sf9 membrane polyspecificity reagent, FACS + sequencing; frameworks hold sequencing errors
# Summary of the method: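 After 36–48 hours of galactose induction, yeast (Saccharomyces cerevisiae BJ5465) displaying a synthetic nanobody library were stained at 4 °C for 1 hour with 10% biotinylated, detergent-solubilized Sf9 membrane reagent. Streptavidin microbeads enriched the stained cells before FACS sorting into low and high (top ~1%) gates on anti-HA and streptavidin fluorescence. Each clone's polyreactivity label reflects its gate of origin.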
row,Sequence,polyreactivity (PSR sort gate)
1,QVQLVESGGGLVQAGGSLRLSCAASGFTFRVNAMGWYRQAPGKERELVAVISHSGGSTYYADSVKGRFTISRDNAKNTVYLQMNSLKPEDTAVYYCAKDRVVLYKYYRVDYWGQGTQVTVSS,low polyreactivity
2,QVQLVESGGGLVQAGGSLRLSCAASGFTFRVYAMGWYRQAPGKERELVAAITKRGGSTYYADSVKGRFTISRDNAKNTVYLQMNSLKPEDTAVYYCATENTPHYASHGYWGQGTQVTVSS,high polyreactivity
3,QVQLVESGGGLVQAGGSLRLSCAASGFTFRWNAMGWYRQAPGKERELVAAITNDDSTYYADSVKGRFTISRDNAKNTVYLQMNSLKPEDTAVYYCNADLTQYDAGFDYWGQGTQVTVSS,low polyreactivity
4,QVQLVESGGGLVQAGGSLRLSCAASGFTFRWNGMGSYRQAPGKERELVAAISYDGTGTYYADSVKGRFTISRDNAKNTVYLQMNSLKPEDTAVYYCAKTYRDDTSLSGFDSWGQGTQVTVSS,high polyreactivity
5,QVQLVESGGGLVQAGGSLRLSCAASGFTFRWYAMGWYRQAPGKERELVAAISSGGGSTYYADSVKGRFTISRDNAKITVYLQMNSLKPEDTAVYYCNSRGTRIASGHYYWGQGTQVTVSS,high polyreactivity
6,QVQLVESGGGLVQAGGSLRLSCAASGFTFRWYAMGWYRQAPGKERELVAAITGSGGSTYYADSVKGRFTISRDNAKNTVYLQMNSLKPEDTAVYYCNRYGVRYYRYDYWGQGTQVTVSS,high polyreactivity
7,QVQLVESGGGLVQAGGSLRLSCAASGFTFRWYAMGWYRQAPGKERELVASISRRGGSTYYADSVKGRFTISRDNAKNTVYLQMNSLKPEDTAVYYCAADYYDYWGQGTQVTVSS,high polyreactivity
8,QVQLVESGGGLVQAGGSLRLSCAASGFTFRWYDMGWYRKAPGKERELVAAIDASDGSTYYADSVKGRFTISRDNAKNTVYLLMNSLKPEDTAVYYCAAEDYQPYFYLYWYDYWGQGTQVTVSS,high polyreactivity
9,QVQLVESGGGLVQAGGSLRLSCAASGFTFRWYTMGWYRQAPGKERELVASINWSTGTPYYADSVKGRFTISRDNAKNTVYLQMNSLNPEDTAVYYCNARFRGRVYDRFGYRGQGTQVTVSS,high polyreactivity
10,QVQLVESGGGLVQAGGSLRLSCAASGFTFRYNAMGWYRQAPGKERELVAAITYRGGSTYYADSVKGRFTISRDNAKNTVYLQMNSLKPEDTAVYYCAAVGDLWGYYWGQGSQVTVSS,low polyreactivity
11,QVQLVESGGGLVQAGGSLRLSCAASGFTFRYNDMGWYRQAPGKERELVAVISSDGTTNYADSVKGRFTISRDNAKNTVYLQMNSLKPEDTAVYYCAAWEFRGNAYYVYAFDYWGQGTQVTVSS,low polyreactivity
12,QVQLVESGGGLVQAGGSLRLSCAASGFTFRYYAKGWYRQAPVKERELVARISRGGNTYYADSVKGRLTISRDNAKNTVYLHMNSLKPEDTAVYYCAVDLTRTLSGMDYWGQGTQVTVSS,high polyreactivity
13,QVQLVESGGGLVQAGGSLRLSCAASGFTFRYYAMGCYRQAPGKVRELVAAITGSGTRTYYADSVKGRFTISRDNAKNTVYLQMNSLKPEDTALYYCNAPRQPRWFDYWGQGTQVTVSS,high polyreactivity
14,QVQLVESGGGLVQAGGSLRLSCAASGFTFRYYAMGSYRQAPGKERELVAAISAGGGSTYYADSVKGRFTISRDNAKNTVYLQMNSLKPEDTAVYYCAAAGARPGYDYWGQGTQVTVSS,high polyreactivity
15,QVQLVESGGGLVQAGGSLRLSCAASGFTFRYYAMGWSRQAPGKERELLAAITGRGGSTYYADSVKGRFTISRDNAKNTVYFQMNSLNPEDTAVSFCAARFTRVYAQVRNDYWGQGTQVTVSS,high polyreactivity
16,QVQLVESGGGLVQAGGSLRLSCAASGFTFRYYAMGWYRPAPGKERELVAAISSGGRTNYADSVKGRFTISRDNAKNTVYLQMNSLKPEDTAVYYCATASRRGDPRLRFYYWGQGTQVTVSS,high polyreactivity
17,QVQLVESGGGLVQAGGSLRLSCAASGFTFRYYAMGWYRQAPGKEREFVAAIRSSGTTTSYADSVKGRFTISRDNEKNTVYLQMNSLKPEDTAVYYCAAGYFGPQQYYYWGQGTQVTVSS,high polyreactivity
18,QVQLVESGGGLVQAGGSLRLSCAASGFTFRYYAMGWYRQAPGKERELVAAISSGGSTYYADSVKGRFTISRDNAKNTVYLQMNSLKPEDTAVYYCATYLAEYGYWGQGTQVTVSS,high polyreactivity
19,QVQLVESGGGLVQAGGSLRLSCAASGFTFRYYAMGWYRQAPGKERELVASISGTGGRTYADSVKGRFTISRDNAKNTVYLQMNSLKPEDTAVYYCAAWSYAYYYRLRYVSHDYWGQGTQVTVSS,high polyreactivity
20,QVQLVESGGGLVQAGGSLRLSCAASGFTFRYYAMGWYRQAPGKERELVASITSGGSTNYADSVKGRFTISRDNAKNTVYLQMNSLKPEDTAVYYCAAQPYKGTGYDYWGQGTQVTVSS,high polyreactivity
21,QVQLVESGGGLVQAGGSLRLSCAASGFTFRYYAMGWYRQAPGKERELVATITSGGRTYYADSVKGRFTISRDNAKNTVYLQMNSLKPEDTAVYYCAADVWYVRTKYGYDYWGQGTQVTVSS,high polyreactivity
22,QVQLVESGGGLVQAGGSLRLSCAASGFTFRYYVMGWYRQAPGKERELVATITWGGGSTYYADSVKGRFTISRDNAKNTVYLQMNSLKPEDPAVYYCAASLKWGRGVLARVLWYNYWGQGTQVTVSS,low polyreactivity

row,Sequence,polyreactivity (PSR sort gate)
1,QVQLVESGGGLVQAGGSLRLSCAASGFTFSAYAIGWYRQAPGKETELVAAITLRGGSTYYADSVKGRFTISRDNAKNTVYLQMNSLNPEDTAVYYCAAERIYVAYDYWGQGTQLTVSS,low polyreactivity
2,QVQLVESGGGLVQAGGSLRLSCAASGFTFSAYTMGWYRQAPGKERELVAAINWSAANTYYADSVKGRFTISRDNAKNTVSLQMNSLKPEDTAVYYCNAEDDYTYDRSFGGYKYDYWGQGTQVTVSS,low polyreactivity
3,QVQLVESGGGLVQAGGSLRLSCAASGFTFSAYTMGWYRQAPGKESELVAAINWSGANTYYADSVKGRFTISRDNAKNTVYLQMNSLKPEDTAVYFCNAEDDYTYDRSFGGYKYDYWGQGTQVTVSS,low polyreactivity
4,QVQLVESGGGLVQAGGSLRLSCAASGFTFSDNAMGWYRQAPGKERELVAAISRSGGNTHYADSVKGRFTISRDNAKNTVFLQMNSLKPEDTAVYYCAARPPGGYLYDYWGQGTQVTVSS,high polyreactivity
5,QVQLVESGGGLVQAGGSLRLSCAASGFTFSDYAMGWYRQAPGKDRELVATISNGDSPYYADSVKGRFTISRDNAKNTVYVQMNSLKPVDTAVNYCATDQPYGADPSNDFDYWGQGTQVTVSS,low polyreactivity
6,QVQLVESGGGLVQAGGSLRLSCAASGFTFSFYAMGWYRQAPGKERELVASISDSDGITFYADSVKGSFTISRDNAKNTVYLPMKSLKPEDTAVYYCAADVAIAIPFSYDYWGQGTQVTVSS,low polyreactivity
7,QVQLVESGGGLVQAGGSLRLSCAASGFTFSIYAMGWSRQAPGKERELVAAIRSSTASTYYADSVKGRFTISRDNAKNTVYLQMNSMKPEDTAVYYCAADTYRTRHIGVKFAFNSWGQGTQVTVSS,high polyreactivity
8,QVQLVESGGGLVQAGGSLRLSCAASGFTFSIYAMGWYRHAPGKERELVAAINWSGGSTYYADSVKGRFTISRDNAKNTVYLQMNSLKPEDTAVSYCATEATYGGGPGYEYWGQGTQVTVSS,low polyreactivity
9,QVQLVESGGGLVQAGGSLRLSCAASGFTFSIYAMGWYRQAPGKERELVAAISYRGTSTYYADSVKGRFTISRDNAKNTVYLQMNSLKPEDTAVYYCNKVSSPFVYTVYYWGQGTQVTVSS,high polyreactivity
10,QVQLVESGGGLVQAGGSLRLSCAASGFTFSKYTMGWYRPAPGKERELVAAITSGGSTNYADSVKGRFTISRDNAKNTVYLQMNSLKPEDTAVYYCNKRHIAHNGVGAGLELDYWGQGTQVTVSS,low polyreactivity
11,QVQLVESGGGLVQAGGSLRLSCAASGFTFSKYTMGWYRQAPGKERELVAAITSGGSTNYADSVKGRFTISRDNAKNTVYLQMNSLKPEDTAVYYCNKRHIAHNAVGAGLELDYWGQGTQVTVSS,low polyreactivity
12,QVQLVESGGGLVQAGGSLRLSCAASGFTFSLYAMGWYRQAPGKERELVASIDSDGVSTYYADSVKGRFTISRDNAKNTVYLQMNSLKPEDTAVYYCAADFWWGYISGPVRGRGYYWGQGTQVTVSS,low polyreactivity
13,QVQLVESGGGLVQAGGSLRLSCAASGFTFSLYAMGWYRQAPGKEWEVVAAISSRGGTTYYADSVKGRFTISRDNAKNTVYLQMNILKAEDTAVYYCAARYVYTRSAFDYWGQGTQVTVSS,high polyreactivity
14,QVQLVESGGGLVQAGGSLRLSCAASGFTFSLYDMGWYRQAPGKERELVADINGSGGSTYYSDSVKGRFTISRDNAKYTVYFQMNSLKPEDTAVYYCAAGPPSRWWYFVDYGYWGQGTQVTVSS,high polyreactivity
15,QVQLVESGGGLVQAGGSLRLSCAASGFTFSNNVMGWYREAPGKERELVAAISRRGGSTYYADSVKGRFTISRDNAKNTVYLQMNSLKPEDTAVYYCAATYPYYVDTSPGKDDHWRQGTQVTVSS,high polyreactivity
16,QVQLVESGGGLVQAGGSLRLSCAASGFTFSNYAMGWYRQAPGKERELVAAISWSGGSTYYADSVKGRFTISRDNAKNTVYLQMNSLKPEDTAVYYCNVLARPPYYKTRVNSPRSDYWGQGTQVTVSS,high polyreactivity
17,QVQLVESGGGLVQAGGSLRLSCAASGFTFSPYAMGGYRKAPGKERELVAAISSSGGSTYYADSVKGRFTISRDNAKNTVYLQMNSLKPEDTAVYYCATQGTRRPGKFYYWGQGTQVPVSS,high polyreactivity
18,QVQLVESGGGLVQAGGSLRLSCAASGFTFSRNVMGWYRQAPGKERELVADITLSGASTYYADSVKARFTISRDNAKNTVYLQMNSLKPEDTSVYSCAADPYHWRWGWRHDYWGQGTQVTVSS,low polyreactivity
19,QVQLVESGGGLVQAGGSLRLSCAASGFTFSRNVMGWYRQAPGKERELVADITLSGASTYYADSVKGRFTISRDNAKNTVYLQMNSLKPEDTAVYYCAADPYHWRCGWRHDYWGQGTQVTVSS,low polyreactivity
20,QVQLVESGGGLVQAGGSLRLSCAASGFTFSSNAMGWYRQAPGKERELVAAIRGSDGNTYYADSVKGRFTISRDNAKNTVYLQMNSLKPEDTAVYYCNARSYGYRTSRARYNYWGQGTQVTVSS,high polyreactivity
21,QVQLVESGGGLVQAGGSLRLSCAASGFTFSSNVMGWYRQAPGKERELVAAISTSGDGSTYYADSVKGRFTISRDNAKNTVYLQMNSLIPEDTAVYYCAAEYPDEDGVYEYDSWGQGTQVTVSS,low polyreactivity
